Measurements from US20260184814A1, “BROADLY NE[…] INFLUENZA NEURAMINIDASE” (priority 2022, published 2026).
Values joined by “and” are separate entries in the source; they are usually repeats but may differ in a detail not shown here. Equal entries are not always repeated. Where two headings read alike, the source gives them in different places.

What was measured:
[1] = molecular target: human FcγRIIIa (F158 allele) (human) (UniProt P08637)
[2] = molecular target: human FcγRIIIa (V158 allele) (human) (UniProt P08637)
[3] = molecular target: human FcγRIIa (H131 allele) (human) (UniProt P12318)
human FcγRIIb (human) [4] = molecular target: human FcγRIIb (human) (UniProt P31994)
human FcRn (human) [5] = molecular target: human FcRn (human) (UniProt P55899); test: MSD
[6] = molecular target: human FcγRIIIa (F158 allele) (human) (UniProt P08637); test: MSD
[7] = molecular target: human FcγRIIIa (V158 allele) (human) (UniProt P08637); test: MSD
human FcγRIIIb (human) = human FcγRIIIb (human) (UniProt O75015); test: MSD
[8] = molecular target: human FcγRIIa (H131 allele) (human) (UniProt P12318); test: MSD
[9] = molecular target: human FcγRIIa (R131 allele) (human) (UniProt P12318); test: MSD
human FcγRIIb (human) [10] = molecular target: human FcγRIIb (human) (UniProt P31994); test: MSD
human C1q (human) [11] = molecular target: human C1q (human) (UniProt P02745); test: MSD [cont'd]
human FcRn (human) [12] = molecular target: human FcRn (human) (UniProt P55899); test: MSD [cont'd]
human FcRn (human) [13] = molecular target: human FcRn (human) (UniProt P55899); test: MSD, pH 6 [cont'd]
human C1q (human) [14] = molecular target: human C1q (human) (UniProt P02745); test: MSD
[15] = molecular target: human FcγRIIIa (F158 allele) (human) (UniProt P08637); remark: listed apart in the source
[16] = molecular target: human FcγRIIa (H131 allele) (human) (UniProt P12318); remark: listed apart in the source
human FcγRIIb (human) [17] = molecular target: human FcγRIIb (human) (UniProt P31994); remark: listed apart in the source
human C1q (human) [18] = molecular target: human C1q (human) (UniProt P02745); test: MSD [cont'd]; remark: listed apart in the source
[19] = molecular target: human FcγRIIIa (F158 allele) (human) (UniProt P08637); test: MSD [cont'd]

Sequence of human FcγRIIIb (human) (O75015 17-200 limits assumed): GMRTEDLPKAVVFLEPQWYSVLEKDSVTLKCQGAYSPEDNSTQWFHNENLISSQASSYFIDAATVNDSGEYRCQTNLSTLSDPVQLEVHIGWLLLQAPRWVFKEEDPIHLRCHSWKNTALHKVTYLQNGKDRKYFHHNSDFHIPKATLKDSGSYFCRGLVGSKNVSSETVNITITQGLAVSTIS
Sequence of human FcγRIIIa (V158 allele) (human) (P08637 17-208 F176V limits assumed): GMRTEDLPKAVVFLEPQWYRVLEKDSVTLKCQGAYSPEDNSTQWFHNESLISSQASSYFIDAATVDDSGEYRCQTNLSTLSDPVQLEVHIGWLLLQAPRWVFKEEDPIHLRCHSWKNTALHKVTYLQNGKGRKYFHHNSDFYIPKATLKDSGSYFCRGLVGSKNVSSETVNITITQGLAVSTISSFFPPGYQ
Sequence of human FcRn (human) (P55899 24-297 limits assumed, chain 1 of 2): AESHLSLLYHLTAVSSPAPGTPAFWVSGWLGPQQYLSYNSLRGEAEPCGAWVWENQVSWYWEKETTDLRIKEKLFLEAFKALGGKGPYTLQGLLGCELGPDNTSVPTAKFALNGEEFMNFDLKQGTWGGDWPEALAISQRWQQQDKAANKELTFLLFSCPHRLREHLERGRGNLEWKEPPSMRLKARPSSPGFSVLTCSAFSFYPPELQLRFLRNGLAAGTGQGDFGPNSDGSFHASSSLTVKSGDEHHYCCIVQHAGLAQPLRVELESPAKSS
Sequence of human FcRn (human) (chain, as listed by the source limits assumed, chain 2 of 2): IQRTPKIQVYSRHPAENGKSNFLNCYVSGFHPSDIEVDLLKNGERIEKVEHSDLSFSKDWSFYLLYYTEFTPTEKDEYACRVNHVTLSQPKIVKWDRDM
Sequence of human FcγRIIa (R131 allele) (human) (P12318 34-218 H167R limits assumed): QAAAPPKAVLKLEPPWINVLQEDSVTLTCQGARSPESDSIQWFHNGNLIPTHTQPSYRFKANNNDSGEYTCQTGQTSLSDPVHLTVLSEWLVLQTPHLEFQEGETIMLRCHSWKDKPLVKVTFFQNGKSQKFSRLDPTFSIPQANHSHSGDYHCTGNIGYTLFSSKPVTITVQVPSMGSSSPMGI
Sequence of human FcγRIIa (H131 allele) (human) (P12318 34-218 limits assumed): as the sequence (P12318 34-218 H167R limits assumed) above, with R134H counted along it
Sequence of human FcγRIIIa (F158 allele) (human) (P08637 17-208 limits assumed): as the sequence (P08637 17-208 F176V limits assumed) above, with V160F counted along it
Sequence of human C1q (human) (P02745 23-245 limits assumed, chain 1 of 3): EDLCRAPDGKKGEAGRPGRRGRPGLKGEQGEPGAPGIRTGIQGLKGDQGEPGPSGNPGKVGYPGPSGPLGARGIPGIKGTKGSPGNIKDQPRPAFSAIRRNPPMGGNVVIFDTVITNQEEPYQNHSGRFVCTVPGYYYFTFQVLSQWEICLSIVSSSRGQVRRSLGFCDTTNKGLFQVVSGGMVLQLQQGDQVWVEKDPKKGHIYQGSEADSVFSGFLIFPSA
Sequence of human C1q (human) (P02746 28-253 limits assumed, chain 2 of 3, further chain): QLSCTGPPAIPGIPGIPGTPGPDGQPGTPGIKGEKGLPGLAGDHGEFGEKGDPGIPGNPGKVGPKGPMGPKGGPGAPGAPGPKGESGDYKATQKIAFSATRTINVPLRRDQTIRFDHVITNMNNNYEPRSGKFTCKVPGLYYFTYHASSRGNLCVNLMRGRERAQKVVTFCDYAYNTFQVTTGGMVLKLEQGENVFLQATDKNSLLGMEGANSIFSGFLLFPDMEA
Sequence of human C1q (human) (P02747 29-245 limits assumed, chain 3 of 3, further chain): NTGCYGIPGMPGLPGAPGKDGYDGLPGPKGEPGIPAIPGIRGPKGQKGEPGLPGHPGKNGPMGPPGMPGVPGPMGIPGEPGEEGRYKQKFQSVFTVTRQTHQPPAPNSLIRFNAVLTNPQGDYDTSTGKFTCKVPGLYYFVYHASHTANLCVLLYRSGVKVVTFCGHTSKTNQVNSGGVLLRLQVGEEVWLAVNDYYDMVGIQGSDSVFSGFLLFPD
Sequence of human FcγRIIb (human) (P31994 43-217 limits assumed): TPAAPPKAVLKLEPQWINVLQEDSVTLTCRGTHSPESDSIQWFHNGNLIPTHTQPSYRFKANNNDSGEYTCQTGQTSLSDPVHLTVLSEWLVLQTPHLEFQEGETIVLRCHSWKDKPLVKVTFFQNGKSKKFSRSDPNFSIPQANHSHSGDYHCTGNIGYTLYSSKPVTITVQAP

## G236A_A330L_I332E_M428L_N434S (antibody)
[1]
  FcγR reporter signaling, fold-change vs wt [cont'd]: 13.5 fold
[2]
  FcγR reporter signaling, fold-change vs wt [cont'd]: 3.92 fold
[3]
  FcγR reporter signaling, fold-change vs wt [cont'd]: 2.32 fold
Human FcγRIIb (human) [4]
  FcγR reporter signaling, fold-change vs wt [cont'd]: 0.35 fold
Human FcRn (human) [5]
  fold-change vs FY1 rIgG1m3: 12.3 fold
  fold-change vs FY1 rIgG1m3-MLNS: 0.68 fold
[6]
  fold-change vs FY1 rIgG1m3: 9.4 fold
  fold-change vs FY1 rIgG1m3-MLNS: 14.4 fold
  fold-change vs wt: 9.41 fold
[7]
  fold-change to WT Fc: 1.56 fold
  fold-change vs FY1 rIgG1m3: 1.6 fold
  fold-change vs FY1 rIgG1m3-MLNS: 2.1 fold
  fold-change vs wt: 1.56 fold
Human FcγRIIIb (human)
  fold-change vs FY1 rIgG1m3: 1.4 fold
  fold-change vs FY1 rIgG1m3-MLNS: 1.9 fold
  fold-change vs wt: 1.4 fold
[8]
  fold-change to WT Fc: 2.89 fold
  fold-change vs FY1 rIgG1m3: 2.9 fold
  fold-change vs FY1 rIgG1m3-MLNS: 3.8 fold
  fold-change vs wt: 2.89 fold
[9]
  fold-change vs FY1 rIgG1m3: 1.3 fold
  fold-change vs FY1 rIgG1m3-MLNS: 2.5 fold
  fold-change vs wt: 1.27 fold
Human FcγRIIb (human) [10]
  fold-change to WT Fc: 0.422 fold
  fold-change vs FY1 rIgG1m3: 0.4 fold
  fold-change vs FY1 rIgG1m3-MLNS: 0.8 fold
  fold-change vs wt: 0.42 fold
Human C1q (human) [11]
  fold-change vs wt: 0 fold
Human FcRn (human) [12]
  fold-change vs wt: 12.3 fold
Human FcRn (human) [13]
  fold-change to WT Fc: 12.3 fold

## GRLR (Fc-LS) (antibody)
Human FcRn (human) [5]
  fold-change vs FY1 rIgG1m3-MLNS: 0.69 fold
[6]
  fold-change vs FY1 rIgG1m3-MLNS: 0.25 fold
[7]
  fold-change vs FY1 rIgG1m3-MLNS: 0.08 fold
Human FcγRIIIb (human)
  fold-change vs FY1 rIgG1m3-MLNS: 0.7 fold
[8]
  fold-change vs FY1 rIgG1m3-MLNS: 0.28 fold
[9]
  fold-change vs FY1 rIgG1m3-MLNS: 0.38 fold
Human FcγRIIb (human) [10]
  fold-change vs FY1 rIgG1m3-MLNS: 0.38 fold

## IgG1 antibody with Fc variant G236A_Y300L
Human C1q (human) [14]
  fold-change vs FY1 rIgG1m3: 0.98 fold
[6]
  fold-change vs FY1 rIgG1m3: 1 fold
[7]
  fold-change vs FY1 rIgG1m3: 0.9 fold
Human FcγRIIIb (human)
  fold-change vs FY1 rIgG1m3: 0.97 fold
[8]
  fold-change vs FY1 rIgG1m3: 18.2 fold
[9]
  fold-change vs FY1 rIgG1m3: 4.6 fold
Human FcγRIIb (human) [10]
  fold-change vs FY1 rIgG1m3: 1.1 fold

## IgG1 antibody with Fc variant G236A (afucosylated)
Human C1q (human) [14]
  fold-change (reference not given): 0.16 fold
[6]
  fold-change (reference not given): 17.2 fold and 35.6 fold
[7]
  fold-change (reference not given): 6.7 fold
Human FcγRIIIb (human)
  fold-change (reference not given): 2.1 fold and 1.8 fold
[8]
  fold-change (reference not given): 5.4 fold and 9.5 fold
[9]
  fold-change (reference not given): 6.1 fold and 9.9 fold
Human FcγRIIb (human) [10]
  fold-change (reference not given): 0.6 fold and 1.1 fold

## L309T_P238D_P396L_T366A (antibody)
[15]
  FcγR reporter signaling, fold-change vs wt [cont'd]: 0.05 fold
[16]
  FcγR reporter signaling, fold-change vs wt [cont'd]: 0.04 fold
Human FcγRIIb (human) [17]
  FcγR reporter signaling, fold-change vs wt [cont'd]: 0.91 fold

## G236A (antibody)
Human C1q (human) [14]
  fold-change vs FY1 rIgG1m3: 0.59 fold and 0.36 fold
[6]
  fold-change vs FY1 rIgG1m3: 0.6 fold and 0.8 fold
[7]
  fold-change vs FY1 rIgG1m3: 0.4 fold and 0.6 fold
Human FcγRIIIb (human)
  fold-change vs FY1 rIgG1m3: 0.82 fold
[8]
  fold-change vs FY1 rIgG1m3: 5.9 fold and 12.1 fold
[9]
  fold-change vs FY1 rIgG1m3: 4.8 fold and 6.3 fold
Human FcγRIIb (human) [10]
  fold-change vs FY1 rIgG1m3: 0.6 fold and 1.1 fold

## IgG1 antibody with Fc variant G236S_R292P_Y300L
[1]
  FcγR reporter signaling, fold-change vs wt [cont'd]: 1.52 fold
[2]
  FcγR reporter signaling, fold-change vs wt [cont'd]: 1.32 fold
[3]
  FcγR reporter signaling, fold-change vs wt [cont'd]: 2.24 fold
Human FcγRIIb (human) [4]
  FcγR reporter signaling, fold-change vs wt [cont'd]: 0.93 fold
[6]
  fold-change vs wt: 1.06 fold
[7]
  fold-change to WT Fc: 0.753 fold
  fold-change vs wt: 0.75 fold
Human FcγRIIIb (human)
  fold-change vs wt: 1.04 fold
[8]
  fold-change to WT Fc: 10.9 fold
  fold-change vs wt: 10.8 fold
[9]
  fold-change to WT Fc: 1.34 fold
  fold-change vs wt: 1.34 fold
Human FcγRIIb (human) [10]
  fold-change to WT Fc: 0.817 fold
  fold-change vs wt: 0.82 fold
Human C1q (human) [18]
  fold-change vs wt: 1.96 fold
Human C1q (human) [11]
  fold-change to WT Fc: 1.98 fold
  fold-change vs wt: 1.98 fold
Human FcRn (human) [12]
  fold-change vs wt: 0.87 fold
[19]
  fold-change to WT Fc: 1.06 fold
Human FcRn (human) [13]
  fold-change to WT Fc: 0.87 fold

## GA (Fc-LS) (antibody)
Human C1q (human) [14]
  fold-change vs FY1 rIgG1m3-MLNS: 0.35 fold
Human FcRn (human) [5]
  fold-change vs FY1 rIgG1m3-MLNS: 0.95 fold
[6]
  fold-change vs FY1 rIgG1m3-MLNS: 0.93 fold
[7]
  fold-change vs FY1 rIgG1m3-MLNS: 0.52 fold
Human FcγRIIIb (human)
  fold-change vs FY1 rIgG1m3-MLNS: 0.84 fold
[8]
  fold-change vs FY1 rIgG1m3-MLNS: 10 fold
[9]
  fold-change vs FY1 rIgG1m3-MLNS: 6.9 fold
Human FcγRIIb (human) [10]
  fold-change vs FY1 rIgG1m3-MLNS: 1.1 fold
